Article PMC10329719 (2023)
Primed or numbered codes have the meaning given here. Where no end group is shown, it is not given here. FITC′ = not defined here

Assays:
Assay in all cases: ELISA-like fluorescence binding assay
TβR3 = target: T1, TβR3 (Homo sapiens, UniProt Q03167)
T1 chain: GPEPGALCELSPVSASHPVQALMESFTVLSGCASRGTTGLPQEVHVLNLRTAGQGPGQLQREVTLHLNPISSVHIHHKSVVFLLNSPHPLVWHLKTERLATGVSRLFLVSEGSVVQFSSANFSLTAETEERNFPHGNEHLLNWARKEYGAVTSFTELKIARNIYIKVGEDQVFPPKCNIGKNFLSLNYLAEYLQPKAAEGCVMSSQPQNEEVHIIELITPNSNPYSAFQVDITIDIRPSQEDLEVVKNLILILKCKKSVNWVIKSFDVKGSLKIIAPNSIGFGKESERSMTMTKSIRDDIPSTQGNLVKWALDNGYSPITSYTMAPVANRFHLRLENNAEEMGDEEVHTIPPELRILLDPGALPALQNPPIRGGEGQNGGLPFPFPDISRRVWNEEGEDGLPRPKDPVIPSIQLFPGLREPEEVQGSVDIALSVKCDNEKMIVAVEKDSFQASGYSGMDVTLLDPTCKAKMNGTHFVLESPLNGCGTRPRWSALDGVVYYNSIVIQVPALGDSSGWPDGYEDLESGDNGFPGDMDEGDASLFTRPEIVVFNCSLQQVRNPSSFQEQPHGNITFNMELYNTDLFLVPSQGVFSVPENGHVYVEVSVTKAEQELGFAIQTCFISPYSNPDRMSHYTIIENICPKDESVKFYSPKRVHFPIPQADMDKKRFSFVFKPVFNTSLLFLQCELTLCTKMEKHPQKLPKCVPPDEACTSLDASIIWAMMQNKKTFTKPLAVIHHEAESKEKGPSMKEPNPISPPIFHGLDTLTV

TβR2 = TβR2 (Homo sapiens, UniProt P37173)
TβR2, sequence (P37173 23-166): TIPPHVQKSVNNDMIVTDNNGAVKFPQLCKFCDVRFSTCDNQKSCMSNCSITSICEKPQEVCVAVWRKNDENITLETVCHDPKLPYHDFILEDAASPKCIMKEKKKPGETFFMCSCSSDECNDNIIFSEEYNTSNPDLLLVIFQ

TβR1 = target: T2, TβR1 (Homo sapiens, UniProt P36897)
T2 chain: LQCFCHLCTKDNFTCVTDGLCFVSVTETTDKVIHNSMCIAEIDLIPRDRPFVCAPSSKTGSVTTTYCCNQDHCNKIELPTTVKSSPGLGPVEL

## ECGLLPVGRPDRVWRLCK-{FITC′} (cysteine pairing not given here) [PTβR2I]
TβR3
  Kd: > 34 µM
TβR2
  Kd: 3.4 µM
TβR1
  Kd: > 34 µM
